Laboratory results published in paper PMC10204415 (2023).

Assays:
[1] = molecular target: T1, MBP-ARHGEF11 (mouse ARHGEF11 residues 1334–1406, except for deleted residues 1352–1394 by alternative … (mouse, UniProt Q68FM7 1334-1406, deleted residues 1352–1394 by alternative splicing)); assay: replicate 1; without BSA blocking
[2] = molecular target: T1, MBP-ARHGEF11 (mouse ARHGEF11 residues …); assay: replicate 2; without BSA blocking
[3] = molecular target: T1, MBP-ARHGEF11 (mouse ARHGEF11 residues …); assay: replicate 3; without BSA blocking
[4] = molecular target: T1, MBP-ARHGEF11 (mouse ARHGEF11 residues …); assay: replicate 1; GSA-immobilized MBP-ARHGEF11, CDNB assay
[5] = molecular target: T1, MBP-ARHGEF11 (mouse ARHGEF11 residues …); assay: replicate 2; GSA-immobilized MBP-ARHGEF11, CDNB assay
[6] = molecular target: T1, MBP-ARHGEF11 (mouse ARHGEF11 residues …); assay: replicate 3; GSA-immobilized MBP-ARHGEF11, CDNB assay

T1 sequence (Q68FM7 entry or part of it deleted residues 1352–1394 by alternative splicing): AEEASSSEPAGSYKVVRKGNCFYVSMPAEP

B1: GST-ZO1-ZU5 (mouse ZO-1 ZU5 domain, residues 1624–1745) (domain or fragment)
chain: EDGHTVVATARGIFNSNGGVLSSIETGVSIIIPQGAIPEGIEQEIYFKVCRDNSILPPLDKEKGETLLSPLVMCGPHGLKFLKPVELRLPHCDPKTWQNKCLPGDPNYLVGANCVSVLIDHF
- Kd [1]: 8.7 µM
- Kd [2]: 10.9 µM
- Kd [3]: 14.7 µM
- Kd [4]: 37.3 µM
- Kd [5]: 28 µM
- Kd [6]: 56 µM
